Experimental data published in publication PMC9482650, “Quantitative fragmentomics allow affinity mapping of interactomes” (Nature Communications, 2022).

Experiments:
Assay in all cases: holdup assay
Set-up in all cases: key: below the threshold = too weak to quantify, mostly under pKd 3.1 to 4
[1] = target: Inadl_2, Q8NI35
[2] = target: PTPN3, P26045
[3] = target: T1, SYNJ2BP, P57105
T1 sequence (P57105 8-110, limits assumed, looked up): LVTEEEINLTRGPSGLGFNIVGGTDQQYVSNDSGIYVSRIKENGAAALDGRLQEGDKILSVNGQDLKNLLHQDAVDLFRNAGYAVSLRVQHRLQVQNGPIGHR

[4] = target: FRMPD2_2, Q68DX3
FRMPD2_2, Q68DX3, sequence (Q68DX3 944-1038): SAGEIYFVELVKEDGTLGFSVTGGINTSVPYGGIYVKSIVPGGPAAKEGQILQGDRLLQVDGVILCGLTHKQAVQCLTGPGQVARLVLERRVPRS

[5] = target: T2, DFNB31_3, Q9P202
T2 sequence (Q9P202 811-907, limits assumed, looked up): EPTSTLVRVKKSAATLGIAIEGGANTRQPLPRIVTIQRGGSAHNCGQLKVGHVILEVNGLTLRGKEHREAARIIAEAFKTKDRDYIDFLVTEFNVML

[6] = target: T3, TIAM2, Q8IVF5
T3 sequence (Q8IVF5 885-986, limits assumed, looked up): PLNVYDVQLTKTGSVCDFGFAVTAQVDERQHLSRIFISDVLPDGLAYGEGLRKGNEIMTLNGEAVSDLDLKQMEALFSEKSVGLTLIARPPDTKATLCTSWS

[7] = target: T4, PDZRN3_1, Q9UPQ7
T4 sequence (Q9UPQ7 244-349, limits assumed, looked up): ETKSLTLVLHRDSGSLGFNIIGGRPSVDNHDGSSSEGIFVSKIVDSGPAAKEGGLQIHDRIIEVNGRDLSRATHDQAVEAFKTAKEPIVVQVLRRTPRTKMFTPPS

[8] = target: NHERF4_2, Q86UT5
NHERF4_2, Q86UT5, sequence (Q86UT5 220-308): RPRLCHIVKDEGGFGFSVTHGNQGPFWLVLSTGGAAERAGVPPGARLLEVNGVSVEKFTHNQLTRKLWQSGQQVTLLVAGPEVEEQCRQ

[9] = target: T5, GRIP1_2, Q9Y3R0
T5 sequence (Q9Y3R0 145-248, limits assumed, looked up): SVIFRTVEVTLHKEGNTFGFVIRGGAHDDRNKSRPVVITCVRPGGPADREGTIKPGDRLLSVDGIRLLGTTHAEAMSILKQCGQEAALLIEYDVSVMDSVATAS

[10] = target: T6, APBA3_1, O96018
T6 sequence (O96018 389-490, limits assumed, looked up): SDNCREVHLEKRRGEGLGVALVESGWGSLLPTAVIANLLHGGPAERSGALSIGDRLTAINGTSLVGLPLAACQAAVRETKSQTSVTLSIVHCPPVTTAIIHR

[11] = target: T7, TJP3_3, O95049
T7 sequence (O95049 375-456, limits assumed, looked up): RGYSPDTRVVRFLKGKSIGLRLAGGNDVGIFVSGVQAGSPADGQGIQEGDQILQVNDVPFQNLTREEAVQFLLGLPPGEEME

[12] = target: DLG2_3, Q15700
[13] = target: Inadl_1, Q8NI35
Inadl_1, Q8NI35, sequence (Q8NI35 113-229): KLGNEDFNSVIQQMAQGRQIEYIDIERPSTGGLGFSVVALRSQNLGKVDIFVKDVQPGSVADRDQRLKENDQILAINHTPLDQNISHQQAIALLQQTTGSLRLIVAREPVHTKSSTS

[14] = target: SCRIB_2, Q14160
SCRIB_2, Q14160, sequence (Q14160 857-960): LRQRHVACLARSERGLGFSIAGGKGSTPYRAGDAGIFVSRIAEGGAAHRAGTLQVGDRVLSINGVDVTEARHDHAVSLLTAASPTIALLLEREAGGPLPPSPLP

[15] = target: GORASP1, Q9BQQ3
GORASP1, Q9BQQ3, sequence (Q9BQQ3 1-208): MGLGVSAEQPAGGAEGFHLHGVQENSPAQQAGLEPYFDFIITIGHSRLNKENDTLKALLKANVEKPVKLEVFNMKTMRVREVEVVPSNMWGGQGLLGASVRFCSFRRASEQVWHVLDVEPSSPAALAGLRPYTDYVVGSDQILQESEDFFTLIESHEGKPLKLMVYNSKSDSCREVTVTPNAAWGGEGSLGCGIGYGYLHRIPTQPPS

[16] = target: T8, PDZD7_3, Q9H5P4
T8 sequence (Q9H5P4 857-944, limits assumed, looked up): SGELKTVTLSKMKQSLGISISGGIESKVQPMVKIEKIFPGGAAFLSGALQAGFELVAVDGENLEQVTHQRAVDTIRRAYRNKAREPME

[17] = target: PDZRN4_1, Q6ZMN7
PDZRN4_1, Q6ZMN7, sequence (Q6ZMN7 213-318): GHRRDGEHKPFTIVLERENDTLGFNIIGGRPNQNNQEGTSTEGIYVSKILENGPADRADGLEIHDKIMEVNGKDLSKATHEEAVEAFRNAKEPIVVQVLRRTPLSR

[18] = target: FRMPD2_3, Q68DX3
FRMPD2_3, Q68DX3, sequence (Q68DX3 1073-1166): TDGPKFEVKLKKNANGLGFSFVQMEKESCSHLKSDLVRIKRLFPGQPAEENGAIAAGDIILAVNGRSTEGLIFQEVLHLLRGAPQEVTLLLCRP

[19] = target: GIPC2, Q8TF65
GIPC2, Q8TF65, sequence (Q8TF65 112-203): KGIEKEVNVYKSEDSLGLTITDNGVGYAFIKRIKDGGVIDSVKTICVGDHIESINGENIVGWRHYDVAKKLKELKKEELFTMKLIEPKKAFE

[20] = target: GRIP2_7, Q9C0E4
GRIP2_7, Q9C0E4, sequence (Q9C0E4 934-1023): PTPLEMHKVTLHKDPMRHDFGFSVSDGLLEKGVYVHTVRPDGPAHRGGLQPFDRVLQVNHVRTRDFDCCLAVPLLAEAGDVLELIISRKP

[21] = target: T9, PTPN13_1, Q12923
T9 sequence (Q12923 1088-1188, limits assumed, looked up): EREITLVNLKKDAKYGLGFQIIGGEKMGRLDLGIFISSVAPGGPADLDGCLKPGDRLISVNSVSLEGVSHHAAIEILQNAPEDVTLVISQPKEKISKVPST

[22] = target: MAGI2_6, Q86UL8
MAGI2_6, Q86UL8, sequence (Q86UL8 1141-1229): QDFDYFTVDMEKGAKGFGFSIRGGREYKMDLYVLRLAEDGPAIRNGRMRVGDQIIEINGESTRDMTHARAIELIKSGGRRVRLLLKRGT

[23] = target: T10, APBA2_1, Q99767
T10 sequence (Q99767 563-664, limits assumed, looked up): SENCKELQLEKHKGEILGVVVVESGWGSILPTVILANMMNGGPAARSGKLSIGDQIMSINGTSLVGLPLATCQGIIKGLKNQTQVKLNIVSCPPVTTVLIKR

[24] = target: PICK1, Q9NRD5
PICK1, Q9NRD5, sequence (Q9NRD5 17-115): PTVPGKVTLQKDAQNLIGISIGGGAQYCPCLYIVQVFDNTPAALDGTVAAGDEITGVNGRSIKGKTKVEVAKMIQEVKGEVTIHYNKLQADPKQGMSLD

[25] = target: DLG4_2, P78352
DLG4_2, P78352, sequence (P78352 155-259): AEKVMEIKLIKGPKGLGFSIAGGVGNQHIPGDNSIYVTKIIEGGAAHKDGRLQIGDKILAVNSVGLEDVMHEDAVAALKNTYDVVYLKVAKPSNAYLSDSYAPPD

[26] = target: T11, SNTB1, Q13884
T11 sequence (Q13884 107-205, limits assumed, looked up): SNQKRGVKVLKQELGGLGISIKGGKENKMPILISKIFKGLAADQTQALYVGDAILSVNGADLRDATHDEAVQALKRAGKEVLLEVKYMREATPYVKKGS

[27] = plain residues with an end cap or a label only (N-terminal biotin on a linker: ttds)
[28] = plain residues with an end cap or a label only (N-terminal biotin on a linker: ahx)
[29] = plain residues with an end cap or a label only (N-terminal biotin on a linker: ado-ado)

Inadl_2, Q8NI35, sequence (Q8NI35 238-335): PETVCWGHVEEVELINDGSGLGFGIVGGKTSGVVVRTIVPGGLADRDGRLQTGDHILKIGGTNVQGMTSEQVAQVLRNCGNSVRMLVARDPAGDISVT
PTPN3, P26045, sequence (P26045 505-587): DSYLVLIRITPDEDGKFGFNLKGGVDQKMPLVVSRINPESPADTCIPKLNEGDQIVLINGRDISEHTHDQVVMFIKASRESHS

Binder: NPDALPETLV [ARHGAP6, O43182]
- pKd [1, 27]: 3.93
- pKd [2, 27]: 4.44
- pKd [3, 27]: 4.06
- pKd [4, 27]: 4.99
- pKd [5, 27]: 4.1
- pKd [6, 27]: below the threshold
- pKd [7, 27]: 4.3
- pKd [8, 27]: below the threshold
- pKd [9, 27]: below the threshold
- pKd [10, 27]: below the threshold
- pKd [11, 27]: below the threshold
- pKd [12, 27]: 4.01
- pKd [13, 27]: below the threshold
- pKd [14, 27]: 3.8
- pKd [15, 27]: below the threshold
- pKd [16, 27]: 5.61
- pKd [17, 27]: 4.11
- pKd [18, 27]: below the threshold
- pKd [19, 27]: 3.49
- pKd [20, 27]: below the threshold
- pKd [21, 27]: below the threshold
- pKd [22, 27]: 4.31
- pKd [23, 27]: below the threshold
- pKd [24, 27]: below the threshold
- pKd [25, 27]: 4.42
- pKd [26, 27]: 4.86

Binder: KDECVIATEV [DLL1, O00548]
- pKd [1, 28]: below the threshold
- pKd [2, 28]: 4.2
- pKd [3, 28]: 4.33
- pKd [4, 28]: 3.99
- pKd [5, 28]: below the threshold
- pKd [6, 28]: below the threshold
- pKd [7, 28]: below the threshold
- pKd [8, 28]: below the threshold
- pKd [9, 28]: below the threshold
- pKd [10, 28]: below the threshold
- pKd [11, 28]: below the threshold
- pKd [12, 28]: 4.13
- pKd [13, 28]: below the threshold
- pKd [14, 28]: 3.82
- pKd [15, 28]: below the threshold
- pKd [16, 28]: 4.63
- pKd [17, 28]: below the threshold
- pKd [18, 28]: below the threshold
- pKd [19, 28]: below the threshold
- pKd [20, 28]: below the threshold
- pKd [21, 28]: below the threshold
- pKd [22, 28]: 4.55
- pKd [23, 28]: below the threshold
- pKd [24, 28]: below the threshold
- pKd [25, 28]: 4.39
- pKd [26, 28]: 3.64

Binder: PDSYHRRDFW [U2AF2, P26368]
- pKd [1, 29]: below the threshold
- pKd [2, 29]: below the threshold
- pKd [3, 29]: below the threshold
- pKd [4, 29]: below the threshold
- pKd [5, 29]: below the threshold
- pKd [6, 29]: below the threshold
- pKd [7, 29]: below the threshold
- pKd [8, 29]: 3.64
- pKd [9, 29]: below the threshold
- pKd [10, 29]: below the threshold
- pKd [11, 29]: below the threshold
- pKd [12, 29]: below the threshold
- pKd [13, 29]: below the threshold
- pKd [14, 29]: below the threshold
- pKd [15, 29]: 3.52
- pKd [16, 29]: below the threshold
- pKd [17, 29]: 3.89
- pKd [18, 29]: below the threshold
- pKd [19, 29]: below the threshold
- pKd [20, 29]: below the threshold
- pKd [21, 29]: below the threshold
- pKd [22, 29]: below the threshold
- pKd [23, 29]: below the threshold
- pKd [24, 29]: 4.17
- pKd [25, 29]: below the threshold
- pKd [26, 29]: below the threshold

Binder: AKPQPVDSWV [ARVCF, O00192]
- pKd [1, 28]: below the threshold
- pKd [2, 28]: 4.94
- pKd [3, 28]: 5.04
- pKd [4, 28]: 4.25
- pKd [5, 28]: below the threshold
- pKd [6, 28]: below the threshold
- pKd [7, 28]: below the threshold
- pKd [8, 28]: below the threshold
- pKd [9, 28]: below the threshold
- pKd [10, 28]: below the threshold
- pKd [11, 28]: 4.73
- pKd [12, 28]: 4.06
- pKd [13, 28]: below the threshold
- pKd [14, 28]: 5.16
- pKd [15, 28]: 4
- pKd [16, 28]: 3.53
- pKd [17, 28]: 3.63
- pKd [18, 28]: below the threshold
- pKd [19, 28]: below the threshold
- pKd [20, 28]: 4.13
- pKd [21, 28]: below the threshold
- pKd [22, 28]: 5.48
- pKd [23, 28]: below the threshold
- pKd [24, 28]: below the threshold
- pKd [25, 28]: 4.81
- pKd [26, 28]: 3.5
